The values that follow come from patent US20240352102A1 (UNITED STATES GOVERNMENT AS REPRESENTED BY THE DEPARTMENT …, published 2024).

This experiment concerns the target T1, Alzheimer's disease tau (ADtau) fibrillar material (human, UniProt P10636-8 2-441, limits assumed, pathological tau with phosphorylation (pS422 detected); sites otherwise not stated).
T1 construct: Aggregated, brain-derived material; also called detergent insoluble pathological tau purified from Alzheimer's disease brain tissue; Alzheimer's disease derived tau
Put plainly: native dot blot densitometry, 20 ng per dot, reference recombinant tau. As to the method: Shown is a native protein dot blot loaded with equivalent mass of E. coli derived recombinant tau (top row, 20 ng) or Alzheimer's disease derived tau (ADtau) (bottom row, 20 ng). […] C57BL/6 (B6) mouse immunostaining included as controls. Insets depict TRC35 immunoreactivity at higher magnification in the CA1. Scale bar=500 um at low power magnification and 50 μm in the insets.
Characterization of TRC35 monoclonal antibodies. TRC35 monoclonal antibodies were used to dot blot equivalent amounts (20 ng) E. coli-expressed native recombinant tau protein and Alzheimer's disease tau (ADtau) fibrillar material. […] Protein preparations were not denatured prior to blotting to preserve native conformations expected of a conformation dependent monoclonal antibody. Dot blots were performed using the Bio-Dot Microfiltration Apparatus as recommended by the manufacturer (Bio-Rad, catalog #170-6545). Membranes were blocked in blocking solution [20 mM Tris, 500 mM NaCl, 1% bovine serum albumin (w/v) | and probed with TRC35 at 1:50,000 as primary antibody in TTBS buffer [20 mM Tris, 500 mM NaCl, 1% bovine serum albumin (w/v), 0.5% (w/v) Tween20]. Blots were washed 3 times in TTBS to remove excess primary antibody. […] Immunoreactivity was measured using Clarity Western ECL reagents (Bio-Rad) Images were scanned and quantitated using LI-COR Image Studio software.

T1 sequence (P10636 other isoform, or with tags, fused parts or gaps limits assumed): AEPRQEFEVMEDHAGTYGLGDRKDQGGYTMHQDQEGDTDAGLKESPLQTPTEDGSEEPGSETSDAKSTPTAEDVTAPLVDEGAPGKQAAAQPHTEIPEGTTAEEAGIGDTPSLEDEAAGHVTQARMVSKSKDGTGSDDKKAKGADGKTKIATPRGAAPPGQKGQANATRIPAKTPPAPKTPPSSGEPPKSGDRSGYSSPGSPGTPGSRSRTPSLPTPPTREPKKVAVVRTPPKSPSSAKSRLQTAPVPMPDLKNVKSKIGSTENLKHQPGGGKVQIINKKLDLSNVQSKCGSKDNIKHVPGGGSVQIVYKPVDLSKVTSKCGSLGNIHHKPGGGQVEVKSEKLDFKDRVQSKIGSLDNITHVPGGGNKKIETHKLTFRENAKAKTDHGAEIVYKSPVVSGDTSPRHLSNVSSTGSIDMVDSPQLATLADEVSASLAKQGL

B1: mAb TRC35 (antibody, V domains shown)
VH: QVQLQQPGTELVKPGASVKLSCKASGYTFTSYWLQWVKQRPGQGLEWIGEIDPSDSYTNYNQKFKGKATLTVDTSSSTAYMQLSSLTSEDSAVYYCATLTGSWGQGTTLAVSS
VL: DVLLTQTPLSLPVSLGDQASISCRASQSIVDSNGNTFLEWYLQKSGQSPKVLIYKVSNRFSGVPDRFSGRGSGTDFTLKISRVEAEDLGVYYCFQGSHVPYTFGGGTKLEIK
notes: Mouse hybridoma monoclonal antibody raised in tau knockout mice against tau/poly(A) RNA complexes; IgG1 isotype, kappa light chain; also called TRC35 monoclonal antibody; hybridoma clone #35
As to B1, the “fold selectivity for ADtau over native tau” value was 8 fold.
